B1: Polypeptide No. 242 (scFv, V domains shown)
VH: QVQLVQSGAEVKKPGSSVKVSCKASGGTFSSATISWVRQAPGQGLEWMGGIIPMFGTANYAQKFQGRVTITADESTSTAYMELSSLRSEDTAVYYCARDAYGDSTWGQGTLVTVSS
VL: EIVMTQSPATLSVSPGERATLSCRASESVSSALAWYQQKPGQAPRLLIYGASTRATGIPARFSGSGSGTEFTLTISSLQSEDFAVYYCQQYGNSVTFGGGTKVEIKR
notes: scFv
B2: Polypeptide No. 238 (scFv, V domains shown)
VH: QVQLVQSGAEVKKPGASVKVSCKASGYTFTIYYMHWVRQAPGQGLEWMGIINPSGGSTVYAQTFQGRVTMTRDTSTSTVYMELSSLRSEDTAVYYCARGIGSKGAFDIWGQGTMVTVSS
VL: not shown
notes: scFv
B3: Polypeptide No. 291 (scFv, V domains shown)
VH: B2 VH with I31S
VL: not shown
notes: scFv
B4: Polypeptide No. 219 (scFv, V domains shown)
VH: QVQLVQSGAEVKKPGASVKVSCKASGYTFTNYYMHWVRQAPGQGLEWMGIINPSSGSASYTQKLQGRVTMTRDTSTSTVYMELSSLRSEDTAVYYCARDRSTLVPLDYWGQGTLVTVSS
VL: DIQMTQSPSSLSASVGDRVTITCRASQGIRSELSWYQQKPGKAPKLLIYKASSLESGVPSRFSGSGSGTDFTLTISSLQPEDFATYYCLQHNSYPLTFGGGTKVEIKR
notes: scFv
B5: Polypeptide No. 235 (scFv, V domains shown)
VH: B4 VH with N31G, S55G, A58T, T61A, L64F, R100P, S101G, T102R, V104G, P105E
VL: EIVMTQSPATLSVSPGERATLSCRASQSVSSNLAWYQQKPGQAPRLLIYGASTRATGIPARFSGSGSGTEFTLTISSLQSEDFAVYYCQQYGSSPLTFGGGTKVEIKR
notes: scFv
B6: Polypeptide No. 218 (scFv, V domains shown)
VH: QVQLVQSGAEVKKPGASVKVSCKASGYSFTTHYMHWVRQAPGQGLEWMGIINPSGGSTRYAQKFQGRVTMTRDTSTSTVYMELSSLRSEDTAVYYCARGSSYYYYGVDVWGKGTTVTVSS
VL: DIQMTQSPSSLSASVGDRVTITCRASQSISTWLAWYQQKPGKAPKLLIYAASSLQSGVPSRFSGSGSGTDFTLTISSLQPEDFATYYCQQAISFPLTFGGGTKVEIKR
notes: scFv
B7: Polypeptide No. 231 (scFv, V domains shown)
VH: QVQLVQSGAEVKKPGASVKVSCKASGYTFTSYYIHWVRQAPGQGLEWMGLINPSGGSTTYAQSFQGRVTMTRDTSTSTVYMELSSLRSEDTAVYYCARGLGWGVVVPAAELDYWGQGTLVTVSS
VL: B6 VL with W32Y, A34N, S53N, A91S, I92Y, F94S, G100P, E105D
notes: scFv
B8: Polypeptide No. 228 (scFv, V domains shown)
VH: QVQLVQSGAEVKKPGASVKVSCKASGGTFSSHAISWVRQAPGQGLEWMGWINPGSGGTNYAQKFQGRVTMTRDTSTSTVYMELSSLRSEDTAVYYCAKDSYDFWSGYYIDYWGQGTLVTVSS
VL: B6 VL with S30Y, W32H, A34N, S53R, S56T, A91S, I92Y, L96F, G100P, E105D
notes: scFv
B9: Polypeptide No. 222 (scFv, V domains shown)
VH: QVQLVQSGAEVKKPGASVKVSCKASGYSFTAYYMHWVRQAPGQGLEWMGIINPSGGSTSYAQKFQGRVTMTRDTSTSTVYMELSSLRSEDTAVYYCARVAGINGEMAYWGQGTLVTVSS
VL: B6 VL with S28D, T31N, W32Y, S53T, A91S, I92Y, S93R, F94T, L96Y, G100Q
notes: scFv
B10: Polypeptide No. 241 (scFv, V domains shown)
VH: B6 VH with S28T, T31R, M34V, R59S, G99S, S100Y, S101H, Y102H, V107M, K112Q
VL: B6 VL with T31N, W32Y, S56G, A91S, I92Y, F94T, L96W, G100Q
notes: scFv
B11: Polypeptide No. 229 (scFv, V domains shown)
VH: QVQLVQSGAEVKKPGASVKVSCKASGYTFTNYYMHWVRQAPGQGLEWMGIINPSGGSTSYAQKFQGRVTMTRDTSTSTVYMELSSLRSEDTAVYYCARGVGYSGYGADLWGRGTLVTVSS
VL: B6 VL with S28G, T31N, W32S, A91S, I92H, F94P, L96Y, G100Q, V104L
notes: scFv
B12: Polypeptide No. 223 (scFv, V domains shown)
VH: QVQLVQSGAEVKKPGASVKVSCKASGYTFTNSFIHWVRQAPGQGLEWMGIINPSGGSTSYAQKFQGRVTMTRDTSTSTVYMELSSLRSEDTAVYYCAKALERRYYYGMDVWGQGTTVTVSS
VL: DIQMTQSPSSLSASVGDRVTITCRASQGISNYLAWYQQKPGKAPKLLIYDGSNLETGVPSRFSGSGSGTDFTLTISSLQPEDFATYYCQQSYSTPLTFGQGTKVEIKR
notes: scFv
B13: Polypeptide No. 233 (scFv, V domains shown)
VH: QVQLVQSGAEVKKPGASVKVSCKASGYTFTSYYLHWVRQAPGQGLEWIGVINPSGGSTTYAQRFQGRVTMTRDTSTSTVYMELSSLRSEDTAVYYCARGIGYGGYFDYWGQGTLVTVSS
VL: DIVMTQSPLSLPVTPGEPASISCRSSQSLLHSNGYNYLDWYLQKPGQSPQLLIYAASSLQSGVPDRFSGSGSGTDFTLKISRVEAEDVGVYYCMQGLRTPHTFGGGTKVEIKR
notes: scFv
B14: Polypeptide No. 240 (scFv, V domains shown)
VH: QVQLVQSGAEVKKPGASVKVSCKASGYTFTSYYMHWVRQAPGQGLEWMGIINPSSGSTTYALKFQGRVTMTRDTSTSTVYMELSSLRSEDTAVYYCARGLGKSAIDYWGQGTLVTVSS
VL: not shown
notes: scFv

Here are results for 14 molecules from US20240101668A1 (WUGEN, published 2024).

Changes are numbered by the printed parent chain. Bounds are passed on as bounds.

For one test, the target named is T1, huFLT3-M227 stably expressed on Ramos cells (human, UniProt P36888 27-993).
T1 construct: whole, on cells; also called FLT3 Mutant
Put plainly: FACS on cells.
Take B1: the “FACS geometric mean fold change over Jurkat parental” value (from here on “FACS geometric mean fold change”) is over 30 fold.
On to B2, for which the “FACS geometric mean fold change” value is over 30 fold.
Turning to B3, the “FACS geometric mean fold change” value is over 30 fold.
Regarding B4, the “FACS geometric mean fold change” value lay in the range of 10 to 30 fold.
In the case of B5, the “FACS geometric mean fold change” value is over 30 fold.
As for B6, the “FACS geometric mean fold change” value lay within 10 to 30 fold.
Regarding B7, the “FACS geometric mean fold change” value was over 30 fold.
Consider B8, for which the “FACS geometric mean fold change” value was over 30 fold.
Regarding B9, the “FACS geometric mean fold change” value is over 30 fold.
Regarding B10, the “FACS geometric mean fold change” value was 10 to 30 fold.
Take B11: the “FACS geometric mean fold change” value is over 30 fold.
Regarding B12, the “FACS geometric mean fold change” value is over 30 fold.
As for B13, the “FACS geometric mean fold change” value was over 30 fold.
On the same count and under the same terms, the value for B14 was over 30 fold.

A further test has as its target T2, huFLT3-T227 stably expressed on Ramos cells (human, UniProt P36888 27-993).
T2 construct: whole, on cells; also called FLT3 WT
Put plainly: FACS on cells.
On to B1, for which the “FACS geometric mean fold change” value is over 30 fold.
For B2, the “FACS geometric mean fold change” value was over 30 fold.
The same measure, in the same setting: in the case of B3 it was over 30 fold; in that of B4, 10 to 30 fold; in that of B5, over 30 fold.
Turning to B6, the “FACS geometric mean fold change” value fell in the range of 10 to 30 fold.
Take B7: the “FACS geometric mean fold change” value was over 30 fold.
On to B8, for which the “FACS geometric mean fold change” value was over 30 fold.
For B9, the “FACS geometric mean fold change” value was over 30 fold.
B10: the “FACS geometric mean fold change” value was 10 to 30 fold.
For the molecule B11, the “FACS geometric mean fold change” value was over 30 fold.
For the molecule B12, the “FACS geometric mean fold change” value is over 30 fold.
For the molecule B13, the “FACS geometric mean fold change” value was over 30 fold.
Take B14: the “FACS geometric mean fold change” value is over 30 fold.
